According to patent US9732156B2, “Methods of treating rheumatoid arthritis using antibodies to matrix metalloproteinase 9” (Gilead Biologics, Inc., priority 2012, dated 2017):

B1: AB0045: humanized variant anti-MMP9 antibody, modified IgG4 (S241P), heavy chain variant VH3 (SEQ ID NO: 7), light chain Vk4 (SEQ ID NO: 12) (antibody, V domains shown)
VH: QVQLQESGPGLVKPSETLSLTCTVSGFSLLSYGVHWVRQPPGKGLEWLGVIWTGGTTNYNSALMSRFTISKDDSKNTVYLKMNSLKTEDTAIYYCARYYYGMDYWGQGTLVTVSS
VL: DIQMTQSPSSLSASVGDRVTITCKASQDVRNTVAWYQQKPGKAPKLLIYSSSYRNTGVPDRFSGSGSGTDFTLTISSLQAEDVAVYYCQQHYITPYTFGGGTKVEIK
modifications: modified IgG4 S241P constant region
B2: AB0046: mouse anti-mouse MMP9 surrogate antibody, kappa light chain (SEQ ID NO: 45), IgG1 heavy chain (SEQ ID NO: 46) (antibody, listed as Mus musculus)
heavy: MGWSSIILFLVATATGVHSQVQLQQPGSVLVRPGASVKLSCTASGYTFTSYWMNWVKQRPGQGLEWIGEIYPISGRTNYNEKFKVKATLTVDTSSSTAYMDLNSLTSEDSAVYYCARSRANWDDYWGQGTTLTVSSAKTTPPSVYPLAPGSAAQTNSMVTLGCLVKGYFPEPVTVTWNSGSLSSGVHTFPAVLQSDLYTLSSSVTVPSSTWPSETVTCNVAHPASSTKVDKKIVPRDCGCKPCICTVPEVSSVFIFPPKPKDVLTITLTPKVTCVVVDISKDDPEVQFSWFVDDVEVHTAQTQPREEQFNSTFRSVSELPIMHQDWLNGKEFKCRVNSAAFPAPIEKTISKTKGRPKAPQVYTIPPPKEQMAKDKVSLTCMITDFFPEDITVEWQWNGQPAENYKNTQPIMDTDGSYFVYSKLNVQKSNWEAGNTFTCSVLHEGLHNHHTEKSLSHSPGK
light: MSSAQFLGLLLLCFQGTRCDIQMTQTTSSLSASLGDRVTISCSASQGISNYLNWYQQKPDGTFKLLIYYTSILHSGVPSRFSGSGSGTDYSLTISNLEPEDIATYYCQQYGWLPRTFGGGTKLEIKRADAAPTVSIFPPSSEQLTSGGASVVCFLNNFYPKDINVKWKIDGSERQNGVLNSWTDQDSKDSTYSMSSTLTLTKDEYERHNSYTCEATHKTSTSPIVKSFNRNEC
modifications: CHAIN (1)...(460) AB0046 IgG1 heavy chain; CHAIN (1)...(233) AB0046 kappa light chain

Tests used:
CD4+ T cell = test: EpiScreen ex vivo human T cell activation assay (immunogenicity); assay type: cell-based; settings: CD4+ T cell response, 20 healthy donors of various HLA haplotypes
Method: The potential clinical immunogenicity of the chimeric MMP9 antibody AB0041 and the humanized MMP9 antibody AB0045 was assessed. An ex vivo human T cell activation assay, the EpiScreen (Antitope, Ltd., Cambridge, UK) was used. The T cell activation in the EpiScreen assay has been correlated to the antibody/protein therapeutic responses in patients. The response of CD4+ T cell in 20 healthy donors, representing a variety of HLA haplotypes, was examined. […] A positive control of KLH induced a response in 95% of the donors, with a magnitude of 6.34+/−2.77 (mean+/−standard deviation).

MMP9 [1] = molecular target: T1, MMP9 (Homo sapiens, UniProt P14780); test: Comparison of binding and inhibitory properties of anti-MMP9 antibodies; settings: AB0045 compared with AB0041
Target sequence in this assay (P14780 94-707, species assumed): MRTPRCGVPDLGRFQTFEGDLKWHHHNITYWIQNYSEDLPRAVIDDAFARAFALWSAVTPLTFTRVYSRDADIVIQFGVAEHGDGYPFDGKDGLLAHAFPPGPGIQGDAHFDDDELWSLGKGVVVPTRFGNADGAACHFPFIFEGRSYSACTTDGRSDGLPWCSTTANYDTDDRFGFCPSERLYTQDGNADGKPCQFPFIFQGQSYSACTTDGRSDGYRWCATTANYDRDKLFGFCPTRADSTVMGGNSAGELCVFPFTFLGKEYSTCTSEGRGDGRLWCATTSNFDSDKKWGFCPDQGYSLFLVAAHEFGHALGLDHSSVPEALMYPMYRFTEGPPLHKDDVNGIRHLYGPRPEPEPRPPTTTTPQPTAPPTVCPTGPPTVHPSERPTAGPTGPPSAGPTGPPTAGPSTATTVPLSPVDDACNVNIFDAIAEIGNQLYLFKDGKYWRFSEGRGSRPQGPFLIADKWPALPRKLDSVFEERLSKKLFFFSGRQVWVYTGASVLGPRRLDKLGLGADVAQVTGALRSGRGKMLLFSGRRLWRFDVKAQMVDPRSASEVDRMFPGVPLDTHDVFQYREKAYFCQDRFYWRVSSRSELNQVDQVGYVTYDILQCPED

MMP9 [2] = molecular target: T1, MMP9; test: IHC binding of AB0045 in UC patient colon tissue; set-up: from tissue; host or cells: colon tissue (biopsies) of human ulcerative colitis patients
Method: Biopsy samples from human patients with ulcerative colitis (UC) and healthy individuals were examined by immunohistochemistry (IHC) using the MMP9-specific antibodies. Antibodies against myeloperoxidase (MPO, a neutrophil marker; Wirtz 2007), collagen IV (COLIV, basement membranes) and CD31 (endothelial cells) were used to assess disease severity and tissue infrastructure. Staining patterns of TIMP1 and MMP2 also were examined. PMK2 (a macrophage marker) also was assessed.
Target sequence in this assay (P14780 94-707): as the sequence (P14780 94-707, species assumed) above

DSS-induced colitis [3] = test: DSS colitis model, prophylactic treatment (Example 5); assay type: in vivo, mouse
Method: The efficacy of AB0046 in a prophylactic setting was assessed and compared with reference agent Prednisolone. The indicated treatment was given at day −1, with the indicated dosing schedules. Induction of disease with 3% DSS was initiated at day 0 and was as described above. Animals were sacrificed at day 14.

[4] = Antibody titers in serum of the CIA study; assay type: in vivo, mouse
Method: (§1) Further, serum panel analyses of terminal serum samples were characterized using ELISA. […] AB0046 titers were measured in terminal serum samples.

[5] = system: collagen-induced arthritis; test: CIA mouse model of rheumatoid arthritis; assay type: in vivo
Method: This example provides additional characterizations of the animals in example 7 that were treated with either vehicle, AB0041 (in the rat model) or AB0046 (in the mouse model) at 2, 10, or 50 mg/Kg, Enbrel at 10 mg/Kg, or methotrexate (MTX) at 0.5 mg/Kg.
In addition to clinical scoring in Table 6 that was conducted in example 7, paw swelling, ankle diameter and body weights of the treated animals were measured. The measurements were conducted once a week before randomization and three times a week thereafter.
In addition, hind limbs were examined microscopically for soft-tissue changes (edema, tissue/vessel necrosis, inflammatory cell infiltration, and fibroplasias) and cartilage and bone changes (cartilage erosion, bone erosion, periosteal bone formation, synovitis, pannus formation, and joint destruction). A standard severity score was used: 0=no significant change, 1=minimal, 2=mild, 3=moderate and 4=severe. The severity scores were based on global changes in each limb.
as §1

DSS-induced colitis [6] = test: DSS-induced colitis model, treatment of established disease (Example 4); assay type: in vivo, mouse
Excerpt: The dextran sodium sulfate (DSS)-induced model of colitis is an accepted model for evaluation of inflammatory bowel disease therapeutics. In this model, oral administration of DSS to mice or rats results in damage to the colonic mucosa. Animals receiving DSS develop bloody diarrhea and lose weight. The inflammation and tissue degradation observed in this model is restricted to the mucosa and generally affects the entire colon. […] The localization of disease and the pathology observed in this model is considered to be reminiscent of human ulcerative colitis (UC), including similar inflammatory cell infiltrate, ulceration, and crypt abscesses.
AB0046 was used in the DSS colitis model (in a 14-day treatment model). Treatment began after 5 days of oral exposure to 3% DSS in drinking water, according to the following experimental design: disease induction with 3% DSS was carried out beginning at day 0 through day 5, with treatment beginning at day 6 (treatment details for animals in groups 1-5 given in Table 2, below); animals were sacrificed at day 14. Etanercept (marketed under the trade name ENBREL®) was used as a reference compound for the therapeutic effect of anti-TNFα therapy in this model. AC-1, an irrelevant antibody of matched isotype (IgG1), was used as a control.
The course of disease was evaluated by video endoscopy (at days 6, 10, and 14), animal weight measurements, observation of stool consistency, and post-study histopathology analysis of colons.
Video endoscopy of the lower colon was performed in a blinded fashion using a small animal endoscope; colitis was scored visually on a scale of 1-4 based on the degree of ulceration, friability, and vascularity present in the tissue. Each mouse was assigned a single score corresponding to the most severe damage observed throughout the entire length of the colon examined.
At study termination, the majority of the distal colon was excised from each animal, formalin-fixed, then embedded in paraffin and sectioned for histology. Slides were stained with hematoxylin and eosin and examined by a board-certified veterinary pathologist blinded as to treatment groups. Tissues were scored for inflammation, edema, and mucosal necrosis according to the scoring scale of 1-4 for each parameter. Sum pathology scores were calculated by summing the three individual parameter score means (inflammation, edema and necrosis).
Body weight and the incidence of diarrhea were recorded daily over the course of the study. The evaluation of body weight changes was performed by calculating the area under the curve (AUC) with the trapezoidal rule method; a similar calculation of AUC for stool consistency was performed by assigning incidence of diarrhea a score of 100 and lack of diarrhea a score of 0.
A trend for reduction of systemic disease-associated cytokines by AB0046 was observed. […] Serum MMP-9 levels were not induced (i.e., no difference between no DSS and vehicle groups; interference by drug antibody cannot be ruled out for MMP9 serum level measurements).

| Molecule | donors in which a response was induced (CD4+ T cell) | binding and inhibitory properties (MMP9 [1]) | binding to MMP9 by IHC (MMP9 [2]) | endoscopic evaluation (DSS-induced colitis [3]; Day 10, 30 mg/kg IP from day −1) | incidence of diarrhea (DSS-induced colitis [3]; prophylactic administration) | inflammation, edema, necrosis and pathology sum score (DSS-induced colitis [3]; study termination) | antibody titer in serum ([4]; 2 mg/kg dose level) | antibody titer in terminal serum ([4]; dosing regimens of 10 and 50 mg/kg) | soft tissue disease, joint damage and destruction (histology) ([5]; 50 mg/kg) | qualitative and quantitative measurements of clinical disease (paw swelling, ankle diameter, body weight) ([5]; all doses (2, 10, 50 mg/Kg)) | serum markers (KC/GRO, MIP-2, GCP-2, lymphotactin, MCP-1, MCP-3, CXCL-10, OSM, MIP-1β, MIP-1γ, Apo A-1) ([5]; terminal serum, ELISA) | reduction of the incidence of diarrhea (DSS-induced colitis [6]; AUC, did not reach statistical significance) | mean endoscopy score (DSS-induced colitis [6]; Day 14 (and Day 10), vs Vehicle and AC-1, AB0046 30 mg/kg IP, ENBREL 10 mg/kg IP) | histopathology: inflammation, edema, mucosal necrosis (DSS-induced colitis [6]; colons at termination, compared to vehicle) | disease-associated increases in serum MCP-1, MCP-3 and eotaxin (DSS-induced colitis [6]; terminal serum) | serum mediators KC/GRO, CXCL10, MPO, LIF, MIP-2, MCP-5 (DSS-induced colitis [6]; terminal serum, multianalyte ELISA) | serum IL-17A (DSS-induced colitis [6]; terminal serum, near lower level of quantification) | serum IL-6 (DSS-induced colitis [6]; terminal serum, not distinguished from AC-1 isotype control) | MMP9 expression in colon by IHC (DSS-induced colitis [6]; three colons per group) | body weight loss (AUC) (DSS-induced colitis [6]; vs AC-1 isotype control or vehicle) |
| --- | --- | --- | --- | --- | --- | --- | --- | --- | --- | --- | --- | --- | --- | --- | --- | --- | --- | --- | --- | --- |
| B1 | did not induce response in any of the donors | equivalent binding and inhibitory properties | bound to MMP9 in UC patient colon tissue |  |  |  |  |  |  |  |  |  |  |  |  |  |  |  |  |  |
| B2 |  |  |  | efficacy of AB0046 prophylactic treatment was observed | reduced the incidence of diarrhea | reduced inflammation, edema, and necrosis | not detectable | measurable drug levels | reduced all measures of soft tissue diseases, joint damage and destruction | significant reversal/mitigation | statistically significant reduction | about 30% | significant improvement in mean endoscopy scores | significantly reduced all three aspects of disease pathology | reduced | systemic reduction | trend for a reduction | reduction | reduction in MMP9 expression | significant protection against body weight loss |
